According to PMC5640804:

Tests used:
[1] = biological target: yeast Golgi t-SNARE complex Sed5/Sec22/Bos1 with D196del Bos1, preassembled and reconstituted into acceptor liposomes (S. cerevisiae) (UniProt Q01590)
[2] = biological target: yeast Golgi t-SNARE complex Sed5/Sec22/Bos1 with G176W Bos1, preassembled and reconstituted into acceptor liposomes (S. cerevisiae) (UniProt Q01590)

liposome fusion assay (NBD fluorescence), reduction in fusion against WT Bos1; still above the control without Bet1 (% reduction in fusion) [1]: 60
liposome fusion assay (NBD fluorescence), reduction in fusion against WT Bos1; still above the control without Bet1 (% reduction in fusion) [2]: 30
B1: yeast Golgi v-SNARE Bet1, reconstituted into fluorescent donor liposomes (natural protein)
chain: MSSRFAGGNAYQRDTGRTQLFGPADGSNSLDDNVSSALGSTDKLDYSQSTLASLESQSEEQMGAMGQRIKALKSLSLKMGDEIRGSNQTIDQLGDTFHNTSVKLKRTFGNMMEMARRSGISIKTWLIIFFMVGVLFFWVWIT
